Measured values published in the supplement of paper PMC9112550, “Optimization of the antimicrobial peptide Bac7 by deep mutational scanning” (BMC Biology, 2022).

What follows are sequences tested on Escherichia coli TOP10 (assay: shrunken log2 fold change of peptide-encoding DNA abundance (4.5 h post-induction vs induction); higher = less antimicrobial activity (less host growth inhibition)). Settings: time post-induction: 4.5 h; library: site-saturation at positions 5, 18, 19, 20.
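Also: peptides expressed intracellularly from a pBAD plasmid library in pooled LB shake-flask culture, induced with 0.3% L-arabinose, DNA abundance read by NGS, three biological replicates, DESeq2 with apeglm shrinkage.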

Sequence	shrunken log2 fold change
RRIRTRPPRLPRPRPRPHFTPRP	-0.149
RRIRLRPPRLPRPRPRPHQLPRP	-0.25
RRIRYRPPRLPRPRPRPRESPRP	0.0662
RRIRFRPPRLPRPRPRPYNIPRP	-0.181
RRIRERPPRLPRPRPRPTYIPRP	-1.02
RRIRCRPPRLPRPRPRPHQCPRP	-0.24
RRIRCRPPRLPRPRPRPATMPRP	-0.0924
RRIRQRPPRLPRPRPRPAVTPRP	0.167
RRIRPRPPRLPRPRPRPMWTPRP	0.0739
RRIRCRPPRLPRPRPRPNDEPRP	-0.0298
RRIRPRPPRLPRPRPRPNQKPRP	-0.0811
RRIRYRPPRLPRPRPRPWPMPRP	-0.0578
RRIRFRPPRLPRPRPRPWATPRP	0.0109
RRIRVRPPRLPRPRPRPSQTPRP	0.112
RRIRDRPPRLPRPRPRPVLLPRP	-0.00551
RRIRCRPPRLPRPRPRPEITPRP	0.0771
RRIRVRPPRLPRPRPRPLNFPRP	-0.249
RRIRCRPPRLPRPRPRPYSEPRP	-0.766
RRIRDRPPRLPRPRPRPEVQPRP	0.988
RRIRERPPRLPRPRPRPVGPPRP	-0.0231
RRIRDRPPRLPRPRPRPYWYPRP	0.00534
RRIRYRPPRLPRPRPRPHYVPRP	-0.208
RRIRARPPRLPRPRPRPVLGPRP	0.419

Sequence	shrunken log2 fold change
RRIRSRPPRLPRPRPRPLNKPRP	-0.343
RRIRMRPPRLPRPRPRPQSNPRP	0.0557
RRIRFRPPRLPRPRPRPPDPPRP	0.571
RRIRLRPPRLPRPRPRPTTYPRP	-0.182
RRIRVRPPRLPRPRPRPKFEPRP	0.12
RRIRVRPPRLPRPRPRPCRTPRP	-1.03
RRIRDRPPRLPRPRPRPCLMPRP	0.209
RRIRQRPPRLPRPRPRPEECPRP	-0.0135
RRIRARPPRLPRPRPRPHCWPRP	0.17
RRIRSRPPRLPRPRPRPRCMPRP	-0.0959
RRIRLRPPRLPRPRPRPINDPRP	-0.35
RRIRTRPPRLPRPRPRPFRMPRP	0.0244
RRIRDRPPRLPRPRPRPLVWPRP	0.831
RRIRARPPRLPRPRPRPKTGPRP	0.427
RRIRFRPPRLPRPRPRPDWMPRP	-0.0628
RRIRERPPRLPRPRPRPHHTPRP	-0.268
RRIRDRPPRLPRPRPRPNKVPRP	-0.494
RRIRLRPPRLPRPRPRPIHKPRP	0.195
RRIRLRPPRLPRPRPRPPDPPRP	0.584
RRIRKRPPRLPRPRPRPPDSPRP	0.189
RRIRTRPPRLPRPRPRPPTCPRP	0.174
RRIRYRPPRLPRPRPRPFEWPRP	0.0273
RRIRLRPPRLPRPRPRPFNFPRP	-0.855

Sequence	shrunken log2 fold change
RRIRGRPPRLPRPRPRPIMHPRP	0.341
RRIRFRPPRLPRPRPRPSFKPRP	-0.683
RRIRERPPRLPRPRPRPAYGPRP	-0.108
RRIRMRPPRLPRPRPRPNVKPRP	-0.0702
RRIRNRPPRLPRPRPRPRWVPRP	-0.172
RRIRHRPPRLPRPRPRPSRYPRP	-1
RRIRERPPRLPRPRPRPASAPRP	0.33
RRIRHRPPRLPRPRPRPNYDPRP	-0.471
RRIRFRPPRLPRPRPRPYVLPRP	-0.332
RRIRDRPPRLPRPRPRPSTQPRP	0.445
RRIRARPPRLPRPRPRPPGSPRP	0.759
RRIRKRPPRLPRPRPRPPECPRP	0.0514
RRIRCRPPRLPRPRPRPIFIPRP	-0.339
RRIRPRPPRLPRPRPRPNMKPRP	-0.52
RRIRYRPPRLPRPRPRPHDFPRP	-0.167
RRIRGRPPRLPRPRPRPMGWPRP	0.967
RRIRSRPPRLPRPRPRPRNCPRP	0.5
RRIRSRPPRLPRPRPRPYNLPRP	-0.573
RRIRPRPPRLPRPRPRPQYRPRP	-0.105
RRIRNRPPRLPRPRPRPYCDPRP	-0.0156
RRIRHRPPRLPRPRPRPYPTPRP	-0.219
RRIRRRPPRLPRPRPRPSYQPRP	-0.141
RRIRRRPPRLPRPRPRPIRHPRP	0.307

Sequence	shrunken log2 fold change
RRIRLRPPRLPRPRPRPRHSPRP	0.0207
RRIRTRPPRLPRPRPRPYIHPRP	-0.779
RRIRYRPPRLPRPRPRPHSFPRP	-0.00356
RRIRPRPPRLPRPRPRPAWGPRP	0.503
RRIRSRPPRLPRPRPRPTDPPRP	-0.000503
RRIRCRPPRLPRPRPRPCQPPRP	-0.149
RRIRDRPPRLPRPRPRPAVMPRP	-0.00993
RRIRTRPPRLPRPRPRPWPMPRP	0.44
RRIRHRPPRLPRPRPRPRCLPRP	-0.169
RRIRTRPPRLPRPRPRPNLAPRP	0.0471
RRIRQRPPRLPRPRPRPHVMPRP	-0.444
RRIRQRPPRLPRPRPRPEGRPRP	0.00666
RRIRMRPPRLPRPRPRPCYSPRP	-0.711
RRIRWRPPRLPRPRPRPTCLPRP	0.324
RRIRMRPPRLPRPRPRPEHAPRP	2.54
RRIRERPPRLPRPRPRPVHHPRP	-0.954
RRIRSRPPRLPRPRPRPWGYPRP	-0.226
RRIRPRPPRLPRPRPRPQDPPRP	-0.135
RRIRYRPPRLPRPRPRPTVKPRP	-0.428
RRIRERPPRLPRPRPRPRESPRP	-0.329
RRIRSRPPRLPRPRPRPMSQPRP	-0.0303
RRIRSRPPRLPRPRPRPIWAPRP	-0.133
